Ends that are not written are not given here.
T1: peptide …
T1 sequence (peptide): TYSSPEDAIHELFP

T2: peptide …
T2 sequence (peptide): TYSSPEDGAHELFP

T3: peptide …
T3 sequence (peptide): TYSSPEDGIHELAP

T4: peptide TASSPEDGIHELFP (also: covalently linked to a PEPSCAN card)
T4 construct: also called replaced amino acid Y
T4 peptide: TASSPEDGIHELFP

T5: peptide TYSSPEDGIAELFP (also: covalently linked to a PEPSCAN card)
T5 construct: also called replaced amino acid H
T5 peptide: TYSSPEDGIAELFP

T6: peptide TYSAPEDGIHELFP (also: covalently linked to a PEPSCAN card)
T6 construct: also called replaced amino acid S (second)
T6 peptide: TYSAPEDGIHELFP

T7: peptide AYSSPEDGIHELFP (also: covalently linked to a PEPSCAN card)
T7 construct: also called replaced amino acid T
T7 peptide: AYSSPEDGIHELFP

T8: peptide TYSSPADGIHELFP (also: covalently linked to a PEPSCAN card)
T8 construct: also called replaced amino acid E (first)
T8 peptide: TYSSPADGIHELFP

T9: peptide TYSSPEDGIHALFP (also: covalently linked to a PEPSCAN card)
T9 construct: also called replaced amino acid E (second)
T9 peptide: TYSSPEDGIHALFP

T10: peptide TYSSPEDGIHEAFP (also: covalently linked to a PEPSCAN card)
T10 construct: also called replaced amino acid L
T10 peptide: TYSSPEDGIHEAFP

T11: peptide TYSSPEAGIHELFP (also: covalently linked to a PEPSCAN card)
T11 construct: also called replaced amino acid D
T11 peptide: TYSSPEAGIHELFP

T12: peptide TYSSPEDGIHELFP (also: covalently linked to a PEPSCAN card)
T12 construct: Synthetic peptide covalently linked to a PEPSCAN card; parent peptide of the alanine scan; also called replaced amino acid: none
T12 peptide: TYSSPEDGIHELFP

T13: peptide TYSSPEDGIHELFA (also: covalently linked to a PEPSCAN card)
T13 construct: also called replaced amino acid P (second)
T13 peptide: TYSSPEDGIHELFA

T14: peptide TYASPEDGIHELFP (also: covalently linked to a PEPSCAN card)
T14 construct: also called replaced amino acid S (first)
T14 peptide: TYASPEDGIHELFP

T15: peptide TYSSAEDGIHELFP (also: covalently linked to a PEPSCAN card)
T15 construct: also called replaced amino acid P (first)
T15 peptide: TYSSAEDGIHELFP

T16: peptide …
T16 sequence (peptide): TYSSPEDGIHEAFP


How the values were obtained:
Test in all cases: PEPSCAN-based ELISA, peptide linked to card
[1] = target: T1, peptide …
[2] = target: T2, peptide …; remark: listed apart in the source
[3] = target: T3, peptide …; remark: listed apart in the source
peptide TASSPEDGIHELFP = target: T4, peptide TASSPEDGIHELFP
Description: (§1) The binding of antibody to each peptide was tested in a PEPSCAN-based ELISA. The 455-well credit card format polypropylene cars containing the covalently linked peptides were incubated with primary antibody solution consisting of 0.05 micrograms antibody/mL diluted in blocking solution, i.e., 4% horse serum, 5% ovalbumin (w/v) in PBS/0.1% Tween. After washing, the peptides were incubated with a 1/1000 dilution of antibody peroxidase conjugate for one hour at 25° C. After washing, the peroxidase substrate 2,2′-azino-di-3-ehtylbenzthiazoline sulfonate (ABTS) and 2 microliters of 3 percent H₂O₂ were added. After one hour, the colour development was measured. The colour development was quantified with a charge coupled device (CCD)-camera and an image processing system (as firstly described in Slootstra et al. Mol Divers. 1996 February; 1(2):87-96).
(§2) Peptide synthesis, screening assays and data calculation for alanine-scan of fibronectin-EDA epitope are performed as described in Example 1. Peptides based on […] were synthesized wherein in each peptide one amino acid is replaced by an alanine. The peptides were tested for binding by antibodies 27A12.70, 29E7.35, 17G8.72 and 42H11.51.

peptide TYSSPEDGIAELFP = target: T5, peptide TYSSPEDGIAELFP
Description: as §1, §2

peptide TYSAPEDGIHELFP = target: T6, peptide TYSAPEDGIHELFP
Description: as §1, §2

peptide AYSSPEDGIHELFP = target: T7, peptide AYSSPEDGIHELFP
Description: as §1, §2

peptide TYSSPADGIHELFP = target: T8, peptide TYSSPADGIHELFP
Description: as §1, §2

peptide TYSSPEDGIHALFP = target: T9, peptide TYSSPEDGIHALFP
Description: as §1, §2

peptide TYSSPEDGIHEAFP = target: T10, peptide TYSSPEDGIHEAFP
Description: as §1, §2

peptide TYSSPEAGIHELFP = target: T11, peptide TYSSPEAGIHELFP
Description: as §1, §2

peptide TYSSPEDGIHELFP = target: T12, peptide TYSSPEDGIHELFP
Description: as §1, §2

peptide TYSSPEDGIHELFA = target: T13, peptide TYSSPEDGIHELFA
Description: as §1, §2

peptide TYASPEDGIHELFP = target: T14, peptide TYASPEDGIHELFP
Description: as §1, §2

peptide TYSSAEDGIHELFP = target: T15, peptide TYSSAEDGIHELFP
Description: as §1, §2

[4] = target: T16, peptide …; remark: listed apart in the source

| Antibody binding (arbitrary optical density units) (arbitrary optical density units) [1] | Antibody binding (arbitrary optical density units) (arbitrary optical density units) [2] | Antibody binding (arbitrary optical density units) (arbitrary optical density units) [3] | Antibody binding (arbitrary optical density units) (peptide TASSPEDGIHELFP) | Antibody binding (arbitrary optical density units) (peptide TYSSPEDGIAELFP) | Antibody binding (arbitrary optical density units) (peptide TYSAPEDGIHELFP) | Antibody binding (arbitrary optical density units) (peptide AYSSPEDGIHELFP) | Antibody binding (arbitrary optical density units) (peptide TYSSPADGIHELFP) | Antibody binding (arbitrary optical density units) (peptide TYSSPEDGIHALFP) | Antibody binding (arbitrary optical density units) (peptide TYSSPEDGIHEAFP) | Antibody binding (arbitrary optical density units) (peptide TYSSPEAGIHELFP) | Antibody binding (arbitrary optical density units) (peptide TYSSPEDGIHELFP) | Antibody binding (arbitrary optical density units) (peptide TYSSPEDGIHELFA) | Antibody binding (arbitrary optical density units) (peptide TYASPEDGIHELFP) | Antibody binding (arbitrary optical density units) (peptide TYSSAEDGIHELFP) | Antibody binding (arbitrary optical density units) (arbitrary optical density units) [4] | Binder |
| --- | --- | --- | --- | --- | --- | --- | --- | --- | --- | --- | --- | --- | --- | --- | --- | --- |
| 89 | 66 | 106 | 2670 arbitrary optical density units | 2560 arbitrary optical density units | 2100 arbitrary optical density units | 2150 arbitrary optical density units | 2480 arbitrary optical density units | 2100 arbitrary optical density units | 1550 arbitrary optical density units | 2650 arbitrary optical density units | 2090 arbitrary optical density units | 2160 arbitrary optical density units | 2500 arbitrary optical density units | 2090 arbitrary optical density units |  | antibody 17G8.72 (antibody, V domains shown, Monoclonal antibody against the EDA domain of fibronectin-EDA; also called 17G8.7VL) VH: DVQLQESGPDLVKPSQSLSLTCTVTGYSIASGYSWHWIRQFPGNKLEWMGYIHFSGSANYNPSLKSRISITRDTSKNQFFLQLNSVTTEDTATYYCASEARGYFDYWGQGTTLTVSS VL: DVLMTQTPLSLPVSLGDQASISCRSSQSIVRSNGNTYLTWYLQKPGQSPKLLIYKVSNRFSGVPDRFSGSGSGTDFTLKISRVEAEDLGVYFCFQGSHVPPTFGSGTKLEIKR |
| 122 | 91 | 249 | 2790 arbitrary optical density units | 2400 arbitrary optical density units | 2680 arbitrary optical density units | 2710 arbitrary optical density units | 2690 arbitrary optical density units | 2200 arbitrary optical density units | 1780 arbitrary optical density units | 2750 arbitrary optical density units | 2680 arbitrary optical density units | 2600 arbitrary optical density units | 2720 arbitrary optical density units | 2710 arbitrary optical density units |  | antibody 27A12.70 (antibody, V domains shown, Murine monoclonal antibody against the EDA domain of fibronectin-EDA) VH: DVQLQESGPDLVKPSQSLSLTCTVTGYSITSGYSWHWIRQFPGNKLEWMGYIHYSGIANYNPSLKSRISITRDTSKNHFFLQLNSVTTEDTATYYCATEKTGFFDYWGQGTTLTVSS VL: DVVMTQTPLSLPVSLGDQASISCRSSQSLVHSNGNTYLHWYLQKPGQSPKLLIYKVSNRFSGVPDRFSGSGSGTDFTLKISRVEAEDLGVYFCSQSAHVPPTFGGGTKLEIKR |
| 81 | 74 | 124 | 2840 arbitrary optical density units | 1800 arbitrary optical density units | 2630 arbitrary optical density units | 2780 arbitrary optical density units | 2630 arbitrary optical density units | 302 arbitrary optical density units |  | 2720 arbitrary optical density units | 2750 arbitrary optical density units | 2600 arbitrary optical density units | 2740 arbitrary optical density units | 2660 arbitrary optical density units | 194 | antibody 29E7.35 (antibody, V domains shown, Monoclonal antibody against the EDA domain of fibronectin-EDA) VH: AVQLQESGPDLVKPSHSLSLTCTVTGYSITSGYSWHWIRQFPGNKLEWMGYIHYSGSANYNPSLKSRFSITRDTSKNQFFLQLNSVTTEDTATYYCATEKTGFFDYWGQGTTLTVSS VL: DVVMTQTPLSLPVSLGDQASISCRSSQSLVHSNGNTYLHWYLQKPGQSPKLLIYKVSNRFSGVPDRFSGSGSGTDFTLKISRVEAEDLGVYFCSQSAHVPPTFGGGTKLEIKR |
